A short description of the series: yeast display, Sf9 membrane polyspecificity reagent, FACS + sequencing; frameworks hold sequencing errors. Put shortly:
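Synthetic nanobody libraries on Saccharomyces cerevisiae BJ5465 were galactose-induced for 36–48 hours, stained 1 hour at 4 °C with 10% biotinylated, detergent-solubilized Sf9 membrane reagent and enriched on streptavidin microbeads. FACS then separated cells into low and high (top ~1%) gates by anti-HA (expression) and streptavidin (reagent binding) fluorescence. Genes were colony-PCR amplified, MiSeq 2 × 250 sequenced and CDR-length filtered. A clone's polyreactivity label is that of its gate of origin.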
On to “QVQLVESGGGLVQAGGSLRLSCASSGRNFRGYAMGWYRQAPGKEREFVAAITKNGGSTYYADSVKGRFTISRDNAKNTVYLQMNSLKPEDTAVYYCAVRAWDPYTGKSDYWGQGTQVTVSS”, for which the “polyreactivity (PSR sort gate)” value is recorded as “low polyreactivity”.

In the case of “QVQLVESGGGLVQAGGSLRLSCAASGRTFDYYTMGWYRQAPGKERELVAAISWSGSTTYYADSVKGRFTISRDNAKNTVSLQMNSLKPEDTAVYYCAKSYRFPSVGPPGELDYWGQGTQVTVSS”, the “polyreactivity (PSR sort gate)” value is “high polyreactivity”.

For “QVQLVESGGGLVQAGGSLRLSCAASGSTFYVNTMGWYRQAPGKERELVAAITDSGVGTYADSVKGRFTISRDNAKNTVYLQMNSLKPEDTAVYYCAADGVTRDYDYWGQGTQVTVSS”, the “polyreactivity (PSR sort gate)” value is listed as “low polyreactivity”. In the case of “QVQLVESGGGLVQAGGSLRLSCAASGRTFYLYGMGWYRQAPGKERELVAAITLSDGSTYYADSVKGRFTISRDNAKNTVYLQMKSLKPEDTAVYYCAARDYPFPYAMNYWGQGTQVTVSS” it was “low polyreactivity”; in that of “QVQLVESGGGLVQAGGSLRLSCASSGRNFGYDGMGWYRQAPGKERELVAAITYRGGSTYYADSVKGRFTISRDNAKNTVYLQMNSLKPEDTAVYYCAADGYSHYRYLYDYWGQGTQVTVSS”, “low polyreactivity”; in that of “QVQLVESGGGLVQAGGSLRLSCAASGSTLGRNAMGWYRQAPGKERELVAAISSTGGSTSYADSVKGRFTISRDNAKNTVYLQMNSLKPEDTAVYYCAKRFSPRYYYWGQGTQVTVSS”, “high polyreactivity”. In the case of “QVQLVESGGGLVQAGGSLRLSCAASGLTFDGNTMGWYRQAPGKERELVAAISFDGGNTYADSVKGRFRISRDNAKNTVYLQMNSLKPEDTAVYYCNASYEYNAGRVETEYDYWGQGTQVTVSS” it was “low polyreactivity”; in that of “QVQLVESGGGLVQAGGSLRLSCAASGITFVQNVMGWYRQAPGKEREFVAGINNSGGSTYYADSVKGRFTISRDNAKNTVYLQMNSLKPEDTAVYYCAAVYDRYTYAFVYRYRRMYYWGQGTQVTVSS”, “low polyreactivity”; in that of “QVQLVESGGGLVQAGGSLRLSCAASGRTFFKNAMGWYRQAPGKERELVAAITSSGGTTYYADSVKGRFTISRDNAKNTVYLQMNSLKPEDTAVYYCATRTYPIRYGYGYWGQGTQVTVSS”, “high polyreactivity”. As for “QVQLVESGGGLVQAGGSLRLSCAASGRIFPVYAMGWYRQAPGKERELVAAISKRDGSTSYADSVKGRFTISRDNAKNTVYLEMNSLKPEDTAVYYCAATYLLERPTSIHPRYDYWGQGTQVTVSS”, the entry is “low polyreactivity”; as for “QVQLVESGGGLVQAGGSLRLSCAASGRIFSFNAMGWYRQAPGKERELVATIRTDGTTNYADSVKGRFTISRDNAKNTVYLQMNSLKPEDTAVYYCAANRKRFAFGYWGQGTQVTVSS”, “high polyreactivity”; as for “QVQLVESGGGLVLAGGSLRLSCAASGFIFSPYVRGWYRQAPGKDRELVAAISSIGGSTYYADSVKGRFTISRDNAKNTVFLQMNSLKPEDTAVYYCADSVYYYASRYDYWGQVTQVTVSS”, “low polyreactivity”. “QVQLVESGGGLVQAGGSLRLSCAASGRIFWGYAMGWYRQAPGKERELVAGITTGGSTKYADSVKGRFTISRDNAKNTVYLQMNSLKPVDTAVYYCAADDQYGYVYYAFWGYDYWGQGTQVTVSS”: the “polyreactivity (PSR sort gate)” value was “low polyreactivity”. As for “QVHLVESGGGLVQAGGSLLLSCAASGGTFAAYAMGWYRQAPGKERELVAAIDSGGTTKYADSVKGRFTISRDNAKNTVYLQMSCLKPEDTAVYYCAAVYRITFGYHTSRAFDYWGQGTQVTVSS”, the entry is “low polyreactivity”; as for “QVQLVESGGGLVQAGGSLRLSCAASGSIFHRNAMGWYRQAPGKERELVATISSSTGSTNYADSVKGRFTISRDNAKNTVYLQMNSLKPEDTAVYYCAAAPHRHSWYYTRHPYFGMDYWGQGTQVTVSS”, “low polyreactivity”. For “QVQLVESGGGLVQAGGSLRLSCASSGLTFALYAMGWYRQAPGKEREFVAAITGSGGSTYYADSVKGRFTISRDNAKHTVYLQMNSLKPEYTAVYYCNKLFYRWRIVDKYYYWGQGTQVTVSS”, the “polyreactivity (PSR sort gate)” value is recorded as “high polyreactivity”. On to “QVQLVESGGGLVQAGGSLRLSCAASGIIFRTNAMGWYRKAPGKEREFVAAISAGGTRTYYADSVKGRFTISRDNAKNTVYLQMNSLKPEDTAVYYCAAASGYDYWGQGTQVTVSS”, for which the “polyreactivity (PSR sort gate)” value is given as “high polyreactivity”.

For the sequence “QVQLVESGGGLVQAGGSIRLSCAASGSIFTINTMGWYRQAPGKERELVAAISKRGGSTYYADSVKGRFTISRDNAKNTVYLQKNSLKPEDTAVYYCAARQFYKYYYWGQGTQVTVSS”, the “polyreactivity (PSR sort gate)” value is “high polyreactivity”. In the case of “QVQLVESGGGLVQAGGSLRLSCAASGIIFVVNDMGWYRQAPGKERELVADISDSGGSTNYADSVKGRFTISRDNAKNTVYLQMNSLKPEDTAVYYCNADGITSLPVPALDYWGQGTQVTVSS” it was “low polyreactivity”.

“QVQLVESGGGLVQAGGSLRLSCAASGSIFGRNAMGWYRQAPGKERELVAGMFYADSEKGRFTISRDNAKNTVYLQMNSLKPEDTAVYYCNADGTTDISNDNWYGYWGQGTQVTVSS”: the “polyreactivity (PSR sort gate)” value was “low polyreactivity”. With “QVQLVESGGGLVQAGGSLRLSCAASGRIFPRNAMGWYRQAPGKERELVAAISQSGTSTYYADSVKGRFTISRDNAKNTVYLQMNSLKPEDTAVYYCAAVSSSGYYWGQGTQVTVSS”, the “polyreactivity (PSR sort gate)” value is “low polyreactivity”. As for “QVQLVESGGGLVQAGGSLRLSCAASGSIFGENAMGWYRQAPGKERELVAAITWSGASTYYADSVKGRFTISRDNAKNTVYLQMNSLKPEDTAVYYCNADRYVRYSTFDYWGQGTQVTVSS”, the entry is “high polyreactivity”. Take “QVQLVESGGGLVQAGGSLRLSCAASGSTFGPYAMAWYRQAPGKERELVAAIDKSGGSTYYADSVKGRFTLSRDNAKNTVYLQMNSLKPEDTAVYYCAADLVRYFGYYDYDSWGQGTQVTVSS”: the “polyreactivity (PSR sort gate)” value is recorded as “low polyreactivity”. As for “QVQLVESGGGLVQAGGSLRLSCAASGLIILPNAMGWYRQAPGKDRELVAAISSYDGSTYYADSVKGRFTISRDSAKNTVYLQMNSLKPEDTAVYYCAAGYYFQVEPDLVYIYSYEYWGQGTQVTVSS”, the “polyreactivity (PSR sort gate)” value was “low polyreactivity”.

Regarding “QVQLVESGGGLVQAGGSLRLTCAASGFTFGPYDMGWSRQAPGKERELVAAITDSSGSTHYADSVKGRFTISRDNAKNTVYLQMNSLKPEDTAVYYCAAQLKSHSTYGHDYWGQGTQVTVSS”, the “polyreactivity (PSR sort gate)” value is listed as “low polyreactivity”.

In the case of “QVQLVESGGGLVQAGGSLRLSCAASGFTFSYYAMGWYRQAPGKERELVAAISFGGSTYYADSVKGRFTISRDNAKNTVYLQMNSLKPEDTAVYYCAVYGDSYWGAYYYSDGYWGQGTQVTVSS”, the “polyreactivity (PSR sort gate)” value was “low polyreactivity”.

For “QVQLVESGGALVQAGGSLRLSCAASGSTFYSYAMGWYRQAPGKERELVAVISTGDTTDYADSVKGRFTISRDNAKNTVNLQMNSLKPEDTAVYYCNAPSYWYYPVLGSFLTFDYWGQGTQVTVSS”, the “polyreactivity (PSR sort gate)” value was “low polyreactivity”. In the case of “QVQLVESPGRLVQAGGSLRLSCDPTGRTFKIYALGSSRQAPGKESELVAAIRRSGGNTYYADSVKGRFTISRDNAKNTVYLQMNSLKPEDTAVYYCAVGRGSLRGRTDGGYWGQGTQVTVSS” it was “high polyreactivity”; in that of “QVQLVESGGGLVQAGGSLRLSCAASGFIFWQYTLGWYRQAPGKERELVAAINGGSSTYYADSVKGRFTISRDNAKNTVYVQKNSRKPEDTAVYYCAADRYLYHDRYEYDYWGQGTQVTVSS”, “high polyreactivity”; in that of “QVQLVESGGGLVQAGGSLRLSCAASGSIFRPYAMGWYRQAPGKERELVAAIRGGGTYYADSVKGRFTISRDNAKNTVYLQMNSLKPEDTAVYYCAQYRYSYYYWGQGTQVTVSS”, “high polyreactivity”. As for “QVQLVESGGGLVQAGGSLRLSCAASGNIFGYNAMGWYRQAPGKERELVAAITSDGRTYYADSVKGRFTISRDNAKNTVYLQMNSLKPEDTAVYYCAADSSGYYWFNYWGQGTQVTVSS”, the “polyreactivity (PSR sort gate)” value is on record as “low polyreactivity”.

“QGQLVESGGGLVQAGGSLRLSCSASGLIFYRYTMGWYRQAPGKEREVVAAISSGGRTYSADSVKGRFTISRDNAKNTVYLQMNSLKPEDTAVYYCATRVYSVHAPSAVPIGGYYWGQGTQVTVSS”: the “polyreactivity (PSR sort gate)” value is “high polyreactivity”. In the case of “QVQLVESGGGLVQAGGSLRLSCVASGRIFYNYAMGWYRQAPGNERELVAAISSSGGRTYYADSVKGRFTISRDNAKNTVYLQMNSLKPEDTAVYYCAADFHDASRPYGSWGQGTQVTVSS” it was “low polyreactivity”; in that of “QVQLVESGGGLVQAGGSLSLSCAASGSTFVPYAMGWYRQAPGKERELVAAISSTGGSTYYADSVKGRFTISRDNAKNTVYLQMNSLKAEDTAVYYCNALAKIRYGQINKGYYWGQGTQVTVSS”, “high polyreactivity”.

As to “QVQLVESGGGLVQAGGSLRLSCAASGSTRRYYAMGWYRQAPGKERELVAAITRLGSTNYADSVKGRFTISRDNAKNTVYLQMNSLKPEDTAVYYCNTRWRYRPYRYRGDGGDYWAQGTQVTVSS”, the “polyreactivity (PSR sort gate)” value was “high polyreactivity”. In the case of “QVQLVESGGGLVQAGGSLRLSCAASGSIFWAYTMGWYRQAPGKERELVAAISASGGSTYYADSVKGRFTISRDNAKNTVYFQMNSLKPEDTAVYYCAAVYDLGYYGPIWAIVLDDYWGQGTQVTVSS” it was “low polyreactivity”. In the case of “QVQLVESGGGLFQAGGSLRLSCAASGSIFYINAMGWYRQAPGKERELVAAISQSDGSTYYADSVKGRFTISSDNAKNTVYLQLNSLKPEDTAVYYCAADAYVLFYGDWYEFDYWGQGTQVTVSS” it was “high polyreactivity”; in that of “QVQLVESGGGLVQAGGSLRLSCAASGSIFYTYAMGWYRQAPWKEREFVAASTGTGVRTYYADSVKGRFTISRDNAKNTVYLPMNSLKPEDTAVYYCAAVSAYRWIGLTNYSTYGYWGQGTQVTVSS”, “high polyreactivity”.

As for “QVQLVESGGGLVQAGGSLRLSCAASGITFATNTMGWYRQAPGKERELVASINYRGGSTYYADSVKGRFTISRDNAKNTVYLQMNSLKPEDTAVYYCNADIYLEYDYWGQGTQVTVSS”, the “polyreactivity (PSR sort gate)” value is reported as “low polyreactivity”. Consider “QVQLVESGGGLVQAGGSLRLSCAASGNTFGKYAMGWSRQAPGKERELLATITRRGGSTYYADSVKGRFTISRDNAKNTVYLQMNSLNPEDTAVYYCAAVVRYRQGVTRSIMDYWGQGTQVTVSS”, for which the “polyreactivity (PSR sort gate)” value is listed as “high polyreactivity”.
